Measurements as given in article PMC9642902 (2022).

Key:
Experiment in all cases: ITC
[1] = molecular target: MjATG8-III, recombinant protein for ITC (Mirabilis jalapa)
[2] = molecular target: MjATG8-I, recombinant protein for ITC (Mirabilis jalapa)
PmPexRD54 AIM peptide = PmPexRD54 AIM peptide (Phytophthora mirabilis)

B1: PiPexRD54 AIM peptide (peptide)
chain: KPLDFDWEIV
Kd [1]: 0.12 µM
Kd [2]: 0.21 µM

B2: potato ATG8-2.2 (StATG8-2.2), protein for ITC (natural protein)
chain: MAKSSFKLEHPLERRQAEAARIREKYPDRIPVIVEKAERSDIPDIDKKKYLVPADLTVGQFVYVVRKRIKLSAEKAIFIFVKNILPPTAAMMSAIYEEHKDEDGFLYMTYSGENTFG
Kd (PmPexRD54 AIM peptide): 4200 µM
